Changes are numbered by the printed parent chain. Names may count otherwise. Like-named read-outs stand apart in the source and are kept apart here.
How the values were obtained:
[1] = tested on: SmCstR (Streptococcus mitis SVGS_061); assay: fluorescence anisotropy; settings: 10 nM dsDNA, 25 mM Tris-HCl, 200 mM NaCl, 2 mM EDTA, 2 mM TCEP, pH 8.0, 25 C
[2] = target: C9A SpCstR C9A (Streptococcus pneumoniae D39) (UniProt A0A0H2ZNA4); assay: fluorescence anisotropy; settings: 10 nM dsDNA, 25 mM Tris-HCl, 200 mM NaCl, 2 mM EDTA, 2 mM TCEP, pH 8.0, 25 C
C9R SpCstR = C9R SpCstR (Streptococcus pneumoniae D39, UniProt A0A0H2ZNA4 1-85, C9R); assay: fluorescence anisotropy
crystal structure [3] = target: the molecule itself; assay: crystal structure
crystal structure [4] = target: the molecule itself; assay: crystal structure; remark: listed apart in the source
crystal structure [5] = target: the molecule itself; assay: crystal structure; remark: listed apart in the source

TACCTCCAAATATACCCTTATGGGGTATATTAAA (double strand) [S. mitis cst operator]
Ka [1]: 1.4e+08 M⁻¹

Sp adcA (AdcR) operator
Ka [2]: 490000 M⁻¹

B1: S. mitis cst operator (dsDNA)
DNA 1: TACCTCCAAATATACCCTTATGGGGTATATTAAA
DNA 2: TTTAATATACCCCATAAGGGTATATTTGGAGGTA
binding result (C9R SpCstR): binds

B2: selenomethionine (SeMet)-substituted C9A SpCstR (natural protein, Streptococcus pneumoniae D39)
chain: TNSKYITALKRSEGQLRGIQKMIEGDRDCADIVTQLTAVRSSVERVIEMIITENLTECINQPLDDSEAQKERLEKAIRYLIKRK
modifications: selenomethionine in place of methionine
stoichiometry N (crystal structure [3]): 4

B3: C9A S. pneumoniae CstR (locus tag SPD_0073) (natural protein, Streptococcus pneumoniae D39)
chain: B2 chain
stoichiometry N (crystal structure [4]): 6

B4: C9A/N55A S. pneumoniae CstR (locus tag SPD_0073) (natural protein, Streptococcus pneumoniae D39)
chain: B2 chain with N54A
stoichiometry N (crystal structure [5]): 4
